{
  "source": "patent US10866245B2",
  "about": "“Methods for dye selection for protein melt temperature determinations” (LIFE TECHNOLOGIES CORPORATION, priority 2013, dated 2020)",
  "molecules": {"B1": {"name": "T4 DNA Ligase: T4 DNA ligase enzyme prepared in PBS and 5% glycerol at 3 mg/ml (protein, UniProt P00970 1-487, looked up)", "DNA ligase": "MILKILNEIASIGSTKQKQAILEKNKDNELLKRVYRLTYSRGLQYYIKKWPKPGIATQSFGMLTLTDMLDFIEFTLATRKLTGNAAIEELTGYITDGKKDDVEVLRRVMMRDLECGASVSIANKVWPGLIPEQPQMLASSYDEKGINKNIKFPAFAQLKADGARCFAEVRGDELDDVRLLSRAGNEYLGLDLLKEELIKMTAEARQIHPEGVLIDGELVYHEQVKKEPEGLDFLFDAYPENSKAKEFAEVAESRTASNGIANKSLKGTISEKEAQCMKFQVWDYVPLVEIYSLPAFRLKYDVRFSKLEQMTSGYDKVILIENQVVNNLDEAKVIYKKYIDQGLEGIILKNIDGLWENARSKNLYKFKEVIDVDLKIVGIYPHRKDPTKAGGFILESECGKIKVNAGSGLKDKAGVKSHELDRTRIMENQNYYIGKILECECNGWLKSDGRTDYVKLFLPIAIRLREDKTKANTFEDVFGDFHEVTGL"}, "B2": {"name": "Human Decorin: Human Decorin Protein, P/N 143-DE (R&D Systems) (protein, UniProt P07585 31-359, looked up)", "Decorin": "DEASGIGPEVPDDRDFEPSLGPVCPFRCQCHLRVVQCSDLGLDKVPKDLPPDTTLLDLQNNKITEIKDGDFKNLKNLHALILVNNKISKVSPGAFTPLVKLERLYLSKNQLKELPEKMPKTLQELRAHENEITKVRKVTFNGLNQMIVIELGTNPLKSSGIENGAFQGMKKLSYIRIADTNITSIPQGLPPSLTELHLDGNKISRVDAASLKGLNNLAKLGLSFNSISAVDNGSLANTPHLRELHLDNNKLTRVPGGLAEHKYIQVVYLHNNNISVVGSSDFCPPGHNTKKASYSGVSLFSNPVQYWEIQPSTFRCVYVRSAIQLGNYK"}},
  "key": {"[1]": {"experiment": "Protein Thermal Shift buffer and salt screen of RecA (SYPRO Orange, Boltzmann fit)", "format": "physicochemical", "from_the_text": "(§1) Applied Biosystems® Real-time PCR Systems instruments, as described above, are used to plot the fluorescence data throughout the thermal melt, generating a fluorescence profile specific to the protein of interest within the test buffer environment or in the presence of a test ligand. A MATLAB based TmTool™ which utilizes the Boltzmann equation to calculate the Tm of the protein from the fluorescence melt plot is used to process the raw data recorded with the instrument.\nFIGS. 3A through 3C illustrate the method of calculating Tm from a typical PTS. The MATLAB based TmTool™ calculates the Tm of the protein from the shape of the fluorescence plot in FIG. 3a. The thermo-stability of RecA in different buffer and salt conditions is compared and the region of interest is fitted to the Boltzmann equation. RecA is prepared in phosphate buffered saline (PBS; 137 mM NaCl, 10 mM Phosphate, 2.7 mM KCl, pH 7.4) and 5% glycerol at a concentration of 3 mg/ml of protein. SYPRO® Orange dye solution is prepared as a 1000× stock from a 5000× stock solution in DMSO, then diluted to a 10× stock solution with PTS buffer.\nThe SYPRO® Orange-protein Protein Thermal Shift Assay reaction mixture is prepared by using 1 μl of the protein solution, 2 μl of the 10× dye solution, and 17 μl of each of experimental buffer solutions A1-A4, B1-B4, C1-C4, and D1-D4. Samples for each protein-dye mixture are run on a ViiA™ 7 qPCR instrument (Life Technologies, Inc.) and analysis using Protein Thermal Shift™ software (Life Technologies Inc.). The run time conditions are: a temperature hold at 20° C. for one minute followed by a thermal ramp of 0.05° C. with continuous data collection to 95° C., followed by a 1 minute hold at the final temperature.\nThe Applied Biosystems' TmTool™ calculator provides the protein Tm calculated via Boltzmann curve-fitting. […] Thus, the methods can be used to identify salt and pH concentrations best suited for stability of a protein as well as conditions for protein storage, crystallography, etc. The Boltzmann equation used is: […]"}, "[2]": {"experiment": "Protein Thermal Shift of RecA with dye formulation 7 versus SYPRO Orange alone", "format": "physicochemical", "procedure": "The assays are run on a ViiA™7 qPCR instrument (Life Technologies, Inc.) and analyzed using Protein Thermal Shift™ software (Life Technologies Inc.). The run time conditions are: a temperature hold at 20° C. for one minute followed by a thermal ramp of 0.05° C. with continuous data collection to 95° C., followed by a 1 minute hold at the final temperature.\nPTS is performed on RecA, using conditions as is discussed in Example 6. 1.4 μl of each of the 100× dye formulations is added according to Table 9. PTS reproducibility is improved with dye formulation 7 (SYPRO® Orange, SYPRO® Red and SYPRO® Tangerine) (FIGS. 13A and 13B) using an X5-M5 filter relative to SYPRO® Orange alone using an X4-M4 filter. In FIG. 13A, using the mixture of dyes (formulation 7), the two melt curves shown are for RecA in E3 and C3 buffer, respectively."}, "T4 DNA ligase": {"target": "T1, T4 DNA ligase (Enterobacteria phage T4, UniProt P00970)", "T1 sequence (P00970 1-487)": "B1 DNA ligase", "experiment": "Protein Thermal Shift assay of T4 DNA ligase with and without ligand ATP (SYPRO Orange)", "format": "binding", "conditions": "derivative curve FIG. 2B", "procedure": "as §1\nT4 DNA ligase is prepared in phosphate buffered saline (PBS; 137 mM NaCl, 10 mM Phosphate, 2.7 mM KCl, pH 7.4) and 5% glycerol at a concentration of 3 mg/ml of protein. T4 DNA ligase samples are prepared using SYPRO® Orange with and without ligand (ATP at 10 mM concentration). SYPRO® Orange dye solution is prepared as a 1000× stock from a 5000× stock solution in DMSO, then diluted to a 10× stock solution using 100 mM Potassium phosphate buffer. The SYPRO® Orange-protein reaction mixture is prepared by using 1 μl of the protein solution, 2 μl of the 10× dye solution, and 17 μl of the PTS buffer. Quadruplicate samples for each protein-dye mixture are run on a ViiA™ 7 qPCR instrument (Life Technologies, Inc.) and analysis using Protein Thermal Shift™ software (Life Technologies Inc.). […]"}, "Human Decorin Protein": {"target": "T2, Human Decorin Protein (Homo sapiens, UniProt P07585)", "T2 construct": "purchased R&D Systems 143-DE", "experiment": "Protein Thermal Shift of human Decorin, anti-Decorin antibody and their mixture", "format": "binding", "conditions": "isolated protein or isolated antibody", "procedure": "T4 DNA ligase is prepared in phosphate buffered saline (PBS; 137 mM NaCl, 10 mM Phosphate, 2.7 mM KCl, pH 7.4) and 5% glycerol at a concentration of 3 mg/ml of protein. T4 DNA ligase samples are prepared using SYPRO® Orange with and without ligand (ATP at 10 mM concentration). SYPRO® Orange dye solution is prepared as a 1000× stock from a 5000× stock solution in DMSO, then diluted to a 10× stock solution using 100 mM Potassium phosphate buffer. The SYPRO® Orange-protein reaction mixture is prepared by using 1 μl of the protein solution, 2 μl of the 10× dye solution, and 17 μl of the PTS buffer. Quadruplicate samples for each protein-dye mixture are run on a ViiA™ 7 qPCR instrument (Life Technologies, Inc.) and analysis using Protein Thermal Shift™ software (Life Technologies Inc.). The run time conditions are: a temperature hold at 20° C. for one minute followed by a thermal ramp of 0.05° C. with continuous data collection to 95° C., followed by a 1 minute hold at the final temperature.\nAn assay was performed to identify whether PTS can be used to analyze binding of an antibody to its ligand. The method is performed using buffer and reaction conditions as described in EXAMPLE 1."}},
  "data": [
    {"molecule": "RecA: RecA DNA repair protein", "values": [
      {"measurement": "Tm in ° C.", "setting": "[1]; Buffer A1: 100 mM Sodium Citrate, pH 5.5, 0 mM NaCl", "result": 42.2, "unit": "°C"},
      {"measurement": "Tm in ° C.", "setting": "[1]; Buffer A2: 100 mM Sodium Citrate, pH 5.5, 50 mM NaCl", "result": 41.7, "unit": "°C"},
      {"measurement": "Tm in ° C.", "setting": "[1]; Buffer A3: 100 mM Sodium Citrate, pH 5.5, 100 mM NaCl", "result": 42.1, "unit": "°C"},
      {"measurement": "Tm in ° C.", "setting": "[1]; Buffer A4: 100 mM Sodium Citrate, pH 5.5, 150 mM NaCl", "result": 41.6, "unit": "°C"},
      {"measurement": "Tm in ° C.", "setting": "[1]; Buffer B1: 100 mM Potassium Phosphate, pH 6.0, 0 mM NaCl", "result": 41.8, "unit": "°C"},
      {"measurement": "Tm in ° C.", "setting": "[1]; Buffer B2: 100 mM Potassium Phosphate, pH 6.0, 50 mM NaCl", "result": 41.2, "unit": "°C"},
      {"measurement": "Tm in ° C.", "setting": "[1]; Buffer B3: 100 mM Potassium Phosphate, pH 6.0, 100 mM NaCl", "result": 41.2, "unit": "°C"},
      {"measurement": "Tm in ° C.", "setting": "[1]; Buffer B4: 100 mM Potassium Phosphate, pH 6.0, 150 mM NaCl", "result": 41.1, "unit": "°C"},
      {"measurement": "Tm in ° C.", "setting": "[1]; Buffer C1: 100 mM Potassium Phosphate, pH 7.0, 0 mM NaCl", "result": 46.8, "unit": "°C"},
      {"measurement": "Tm in ° C.", "setting": "[1]; Buffer C2: 100 mM Potassium Phosphate, pH 7.0, 50 mM NaCl", "result": 46.6, "unit": "°C"},
      {"measurement": "Tm in ° C.", "setting": "[1]; Buffer C3: 100 mM Potassium Phosphate, pH 7.0, 100 mM NaCl", "result": 46, "unit": "°C"},
      {"measurement": "Tm in ° C.", "setting": "[1]; Buffer C4: 100 mM Potassium Phosphate, pH 7.0, 150 mM NaCl", "result": 45.7, "unit": "°C"},
      {"measurement": "Tm", "setting": "[2]; Buffer C3, SYPRO Orange alone, X4-M4 filter", "result": 53.3, "unit": "°C"},
      {"measurement": "Tm", "setting": "[2]; Buffer C3, dye formulation 7, X5-M5 filter", "result": 49.5, "unit": "°C"},
      {"measurement": "Tm", "setting": "[2]; Buffer E3, SYPRO Orange alone, X4-M4 filter", "result": 48.1, "unit": "°C"},
      {"measurement": "Tm", "setting": "[2]; Buffer E3, dye formulation 7, X5-M5 filter", "result": 45.7, "unit": "°C"}
    ]},
    {"molecule": "Nc1ncnc2c1ncn2[C@@H]1O[C@H](COP(=O)(O)OP(=O)(O)OP(=O)(O)O)[C@@H](O)[C@H]1O", "note": "[ATP, reference compound]", "values": [
      {"measurement": "Tm of complexed T4 DNA Ligase", "setting": "T4 DNA ligase; with ligand ATP at 10 mM", "result": "about 48 °C"}
    ]},
    {"molecule": "B1", "values": [
      {"measurement": "Tm of uncomplexed T4 DNA Ligase", "setting": "T4 DNA ligase; no ligand", "result": "about 42 °C"}
    ]},
    {"molecule": "B2", "values": [
      {"measurement": "Tm", "setting": "Human Decorin Protein", "result": 47.7, "unit": "°C"}
    ]}
  ]
}
